Sequences and labels used below:
B1: TPR 5TU (parent)
chain: GGAUCUUCUCGAUCUAACAAAAAAGACAAAUCUGCCACAAAGCUUGAGAGCAUCUUCGGAUGCAGAGGCGGCAGCCUUCGGUGGCGCGAUAGCGCCAACGUUCUCAACUAUGACACGCAAAACGCGUGCUCCGUUGAAUGGAGUUUAUCAUG

Fewer inactive variants are shown than the library holds.

This note sets out measurements from the RNAGym collection of RNA variant scans (doi:10.1073/pnas.2313332121).

Variants of B1 are the subject of this series. Kind of series: polymerase ribozyme fitness, log enrichment relative to wild type (log ratio); higher = more active; in vitro selection for triplet polymerase activity. The method in brief:
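Streptavidin-bead capture of gel-excised extended constructs, followed by RT-PCR, closed a single triplicate in vitro selection round. That round began by annealing PCR-built, transcribed mutant libraries of each subunit of a heterodimeric triplet polymerase ribozyme with a biotinylated primer, the partner subunit and triplets, then incubating them frozen at −7 °C. After Illumina sequencing of inputs and outputs, genotypes needed ≥10 input reads and ≥1 read per output. Fitness is the base-2 logarithm of genotype enrichment over wild-type enrichment, using inverse-variance-weighted replicate averages.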
In the case of C10A A12G U53A U55A G92C G94C C105U, the “polymerase ribozyme fitness (log ratio)” value is ≤ -4.2.

In the case of C8U C57U G71C G86A U104A, the “polymerase ribozyme fitness (log ratio)” value is ≤ -4.2.

Take C8U C87A: the “polymerase ribozyme fitness (log ratio)” value is ≤ -4.2.

As to C8A A20U G42C C43G U44A A113U A142C, the “polymerase ribozyme fitness (log ratio)” value was ≤ -4.2.

Turning to U9G G58A C75U G83U C95A C131A, the “polymerase ribozyme fitness (log ratio)” value is ≤ -4.2.

As for U7G A64C A122G, the “polymerase ribozyme fitness (log ratio)” value was ≤ -4.2.

Regarding C8G C35U G46C C72U G74U C96U A107G, the “polymerase ribozyme fitness (log ratio)” value was ≤ -4.2.

Regarding C10A A23G C32A C38U G46U G59A A60G A97G, the “polymerase ribozyme fitness (log ratio)” value is ≤ -4.2.

Take U9G A24U C96U U144G: the “polymerase ribozyme fitness (log ratio)” value is ≤ -4.2.

In the case of U7C C38U C87A A122U, the “polymerase ribozyme fitness (log ratio)” value is ≤ -4.2.

For C8U A17U G42C C116U C125U U146G, the “polymerase ribozyme fitness (log ratio)” value is ≤ -4.2.

With U9A C75U G88C C99G U101A C118U A137C, the “polymerase ribozyme fitness (log ratio)” value is ≤ -4.2.

Regarding U9C A26U C38U C54A A66C U78A A89C A97G, the “polymerase ribozyme fitness (log ratio)” value was ≤ -4.2.

As for C8U A60U, the “polymerase ribozyme fitness (log ratio)” value is -3.79.

As to C8A C35G C51U G59A A73G C76A C85G A138U U151C, the “polymerase ribozyme fitness (log ratio)” value is ≤ -4.2.

Take U7A C27A G59U G83A G94A C103G: the “polymerase ribozyme fitness (log ratio)” value was ≤ -4.2.

Take C8A A24G U61A C76G U78C G84U: the “polymerase ribozyme fitness (log ratio)” value is ≤ -4.2.

For the variant C8G C14U A26C U61A C69U G80A U145G, the “polymerase ribozyme fitness (log ratio)” value was ≤ -4.2.

Consider U7G A16U A28C G62C G86U C95U A110U, for which the “polymerase ribozyme fitness (log ratio)” value was ≤ -4.2.

For the variant C8U A39C G59C C96U C103A C114U C116U, the “polymerase ribozyme fitness (log ratio)” value was ≤ -4.2.

As to C8G G11C C14U G50C C95U C132A U135A A137C, the “polymerase ribozyme fitness (log ratio)” value is ≤ -4.2.

Consider C10A A12G A60G C93A, for which the “polymerase ribozyme fitness (log ratio)” value was ≤ -4.2.

On to U7G G141C, for which the “polymerase ribozyme fitness (log ratio)” value is -3.41.

As to C10A A17C A41G C54G U55A C85U C95U U104G G126U A138G G152U, the “polymerase ribozyme fitness (log ratio)” value was ≤ -4.2.

Regarding C8U C27U A37C U55A C87G U111A C118G G124A, the “polymerase ribozyme fitness (log ratio)” value is ≤ -4.2.

As for U9C G58C A91G C105G A110G, the “polymerase ribozyme fitness (log ratio)” value was ≤ -4.2.

As to U7C U31A G46A G59C C85G C118U, the “polymerase ribozyme fitness (log ratio)” value is ≤ -4.2.

As to C8A U44C C79G G86C G140U, the “polymerase ribozyme fitness (log ratio)” value is ≤ -4.2.

For the variant C8U C14G G50C A106U A110G, the “polymerase ribozyme fitness (log ratio)” value is ≤ -4.2.

As for U9C U31A U55A G59C U82G C108A C129G U144C, the “polymerase ribozyme fitness (log ratio)” value was ≤ -4.2.

With U7G A22U C43U C93A A142G, the “polymerase ribozyme fitness (log ratio)” value is ≤ -4.2.

Take C8G A30C C75A G86U C118G: the “polymerase ribozyme fitness (log ratio)” value is ≤ -4.2.

U9G U55A C96G C116A: the “polymerase ribozyme fitness (log ratio)” value is -4.14.

As to C8U C79A G92A C105A, the “polymerase ribozyme fitness (log ratio)” value is ≤ -4.2.

Consider U7G A20C U56A C72G A73G C85U C93G A98G A115U, for which the “polymerase ribozyme fitness (log ratio)” value is ≤ -4.2.

With C8G G70C C93U C99U U148G, the “polymerase ribozyme fitness (log ratio)” value is ≤ -4.2.

C8U U15C A17U A40G G42C U61G C75U C93U C129U G133U: the “polymerase ribozyme fitness (log ratio)” value was ≤ -4.2.

For U9G A29G C85U A121U G128U, the “polymerase ribozyme fitness (log ratio)” value is ≤ -4.2.

For C8A C114G A142C, the “polymerase ribozyme fitness (log ratio)” value was ≤ -4.2.

In the case of C8A C27U G70A C96U, the “polymerase ribozyme fitness (log ratio)” value is ≤ -4.2.

For U7G C27U G48C G59C C76U C79A G83U C93A, the “polymerase ribozyme fitness (log ratio)” value is ≤ -4.2.

For the variant U9G G25C C27U C35U U102A A147C, the “polymerase ribozyme fitness (log ratio)” value is ≤ -4.2.
